Key:
[1] = target: Kv2.1 "wild-type" base construct hKv2.1-m7-c3 (human Kv2.1, residues 1-858, mutated to confer AgTx2 (human) (UniProt Q14721)); experiment: cell-based or functional assay
[2] = target: Kv2.1 R300S (on the hKv2.1-m7-c3 base construct) (human) (UniProt Q14721); experiment: cell-based or functional assay

Sequence of AgTx2 (Agitotoxin-2 / agitoxin 2, scorpion toxin) (P46111 whole entry): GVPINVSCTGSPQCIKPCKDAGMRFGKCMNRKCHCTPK

“AgTx2 (Agitotoxin-2 / agitoxin 2, scorpion toxin) (from UniProt P46111 1-38) (peptide)” gave a mean inhibition of the maximal outward (alpha pore) current at +60 mV by 1 nM AgTx2, two-electrode voltage clamp, Xenopus oocytes [1] of 66.5% and a mean inhibition of the maximal outward (alpha pore) current at +60 mV by 1 nM AgTx2, two-electrode voltage clamp, Xenopus oocytes [2] of 67.8%.
